The source of these data is patent US20150258217A1, “Methods of Synthesizing and Using Peg-Like Fluorochromes” (THE GENERAL HOSPITAL CORPORATION, priority 2012, published 2015).

For data set [1], the system named is HT-29, a human colon carcinoma cell line. In words: PN and peptide binding to cells (non-specific binding, FACS). It is filed as cell-based. The following applies: HT-29 cells, 30 min at 37° C., FACS. A digest of the protocol:
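Cells seeded at 5×10^5 cells/well the day before, then rinsed and incubated 30 min at 37 °C in 2% FBS/DPBS (+Ca, +Mg) with nanoprobes (added as a 2 μM solution; concentration set spectrophotometrically via dye extinction coefficients). After trypsin/EDTA detachment, cell-associated fluorescence was read by FACS.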

Data set [2] can be described thus: Quantum yield determination. The data set is classed as physicochemical. As to conditions: for Quant. Yield: Table 5, in PBS. An outline of the steps:
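Relative quantum yields in PBS, probe absorbance adjusted below 0.1, references IR-783 (0.043), fluorescein (0.18), Cy3 (0.31). Excitation/emission ranges: PN(783) 730 nm/765–870 nm; PN(545) 515 nm/538–700 nm; PN(497) 450 nm/475–620 nm, maximum emission used. Triplicate, mean±SD.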

Data set [3] in a line: PN pharmacokinetics, blood fluorescence fit to two-compartment model. It is filed as in vivo, mouse. As to conditions: for Alpha half-life / Alpha rate / Beta half-life / Beta rate: nude mice, IV, 10 nmole, biexponential fit; for k elim half-life / k elim rate / k perm half-life / k perm rate / k vas return half-life / k vas return rate: two-compartment model micro constant. Here is the method:
Groups of 5 nude mice (female; 25-30 g; 6-8 weeks old; nu/nu) were injected (tail vein, IV) with 10 nmole of PN(783)4.3 or PN(783)10.0. 50 μl of blood was collected from tail tip at the indicated times. The blood was processed as above, and diluted (25 μl plasma, 700 μl of PBS). Fluorescence was measured with Cary Eclipse Fluorescence Spectrophotometer, excitation at 765 nm and emission from 790 to 880 nm. The fluorescence intensity at 806 nm was plotted over time, and the data was fit with two-phase decay curve. The fast and slow distribution half-life was given by the two-phase decay fit with Graphpad Prism software.
From the two-phase decay fit, a biexponential equation for blood concentration as a function of time, was obtained. By the relation of macro constants and micro constants, micro constants k's can be obtained, and the half-life was calculated by as described in Rosenbaum, S. E. Basic Pharmacokinetics and Pharmacodynamics: An Integrated Textbook and Computer Simulations, (John Wiley and Sons, Hoboken, N.J., 2011). The curve for interstitium concentration vs. time was fit with MATLAB based on the curve of blood concentration vs. time.
Serum fluorescence data from FIG. 24b and FIG. 24c was analyzed using the two-compartment model as described in Rosenbaum, S. E. Basic Pharmacokinetics and Pharmacodynamics: An Integrated Textbook and Computer Simulations, (John Wiley and Sons, Hoboken, N.J., 2011). Data were first fit to biexponential equation, yielding values of Alpha, Beta (apparent decay constants) and values of A and B as shown in equations 1 and 2 below.
By the relation of macro constants and micro constants, […]

Data set [4] can be described thus: Circulating form of PN's (FPLC of serum after IV injection). It is filed as in vivo, mouse. The following applies: nude mice, 20 nmoles. The protocol:
20 nmoles of PN(783)4.3, PN(783)6.1, or PN(783)10.0 was injected (IV, tail vein) into nude mice (female; 25-30 g; 6-8 weeks old; nu/nu). At the indicated time, 50 μl of blood was collected with microhematocrit capillary tube (Fisher Scientific) from the tail, and transferred to Eppendorf microcentrifuge tube with anticoagulant (EDTA) coating (Fisher Scientific). Tubes were centrifuged (5000 rpm for 5 minutes), and the supernatant was injected to the FPLC, a ÄKTA Purifier 10 with Superdex™ 200 10/300GL column.

Take “(DOTA)Lys(PEG5K)-Cys(IR-783) [PN(783)4.3]”: in data set [1], the “Cell NSB (percent of cells with fluorescence higher than unstained cell)” value is listed as 20%. The “Quantum Yield” value in data set [2] (Table 3B, IR-783 dipeptides) is 0.17. In addition, the “Quant. Yield” value in data set [2] was 0.16. Besides, in data set [3], the Alpha half-life is recorded as 0.13 h, the Alpha rate was found to be 5.30 h⁻¹, the Beta half-life was 1.64 h and the Beta rate is 0.42 h⁻¹. In data set [3], this substance displayed a k elim half-life of 1.01 h, a k elim rate of 0.68 h⁻¹, a k perm half-life of 0.40 h and a k perm rate of 1.74 h⁻¹. In data set [3], the “k vas return half-life” value is given as 0.20 h and the “k vas return rate” value stood at 3.30 h⁻¹. In data set [4], the “circulating form after injection (FPLC elution vs pre-injection sample)” value was “identical for pre-injection samples and for sera from injected mice”.

As for “(DOTA)Lys(PEG30K)-Cys(IR-783) [PN(783)10.0]”, in data set [1], the “Cell NSB (percent of cells with fluorescence higher than unstained cell)” value was 18%. Also, the “Quant. Yield” value in data set [2] came to 0.16. In addition, in data set [3], the Alpha half-life came out at 0.51 h, the Alpha rate came out at 1.36 h⁻¹, the Beta half-life was found to be 7.0 h and the Beta rate was found to be 0.099 h⁻¹. Further, in data set [3], the k elim half-life came to 4.2 h, the k elim rate worked out at 0.24 h⁻¹, the k perm half-life came out at 1.02 h and the k perm rate is 0.67 h⁻¹. In data set [3], the “k vas return half-life” value is listed as 1.23 h and the “k vas return rate” value was 0.56 h⁻¹. Also, in data set [4], the “circulating form after injection (FPLC elution vs pre-injection sample)” value is “circulates at its pre-injection size”.
